Reference: article PMC9080894

Experiments:
thrombin, BODIPY-labeled [1] = target: T1, thrombin, BODIPY-labeled (human, UniProt P00734;P00734 328-363;364-622); test: single-particle fluorescence microscopy of coated microspheres
thrombin, BODIPY-labeled [2] = target: T1, thrombin, BODIPY-labeled; test: single-particle fluorescence microscopy of aptamer-coated microspheres

Binder	binding result (thrombin, BODIPY-labeled [1])	binding result (thrombin, BODIPY-labeled [2])
CCAACCACAGTGTT (ssDNA, 3'-NH2) [NH2-com]	no binding	–
TTCACTGTGGTTGGTGTGGTTGG (structured_DNA, 5'-NH2) [ssTBA]	–	binds
